These results are taken from US20210047435A1 (Janssen / Centocor, published 2021).

The target of this assay is T1, LTBR (form used for the KD not stated) (human, UniProt P36941 31-227, limits assumed).
T1 construct: neither the method nor the LTBR construct is described; also called human LTBR; TNFRSF3
Briefly: method not stated; stapled scFv variant against LTBR.

T1 sequence (P36941 31-227 limits assumed): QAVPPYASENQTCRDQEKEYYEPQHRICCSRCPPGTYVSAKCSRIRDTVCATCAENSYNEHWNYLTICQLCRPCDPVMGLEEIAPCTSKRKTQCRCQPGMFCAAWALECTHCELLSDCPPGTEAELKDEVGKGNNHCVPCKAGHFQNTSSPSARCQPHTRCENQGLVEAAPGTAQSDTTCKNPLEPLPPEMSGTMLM

B1: stapled scFv (VL3 Y36F S49Y F87Y) BHA10 (VH-VL) (scFv)
scFv: QVQLVQSGAEVKKPGSSVKVSCKASGYTFTTYYLHWVRQAPGCGLEWMGWIYPGNVHAQYNEKFKGRVTITADKSTSTAYMELSSLRSEDTAVYYCARSWEGFPYWGQGTTVTVSSGGGSGGGSGCPPCGGGGDIQMTQSPSSLSASVGDRVTITCKASQNVGINVAWFQQKPGKAPKSLIYSASYRYSGVPSRFSGSGSGTDFTLTISSLQPEDFATYYCQQYDTYPFTFGCGTKVEIK
As to B1, the Kd (usually the concentration at which binding is half-saturated) is roughly 60 nM.

B2: stapled scFv (VH CDR1 Y33A) BHA10 (VH-VL) (scFv)
scFv: QVQLVQSGAEVKKPGSSVKVSCKASGYTFTTYALHWVRQAPGCGLEWMGWIYPGNVHAQYNEKFKGRVTITADKSTSTAYMELSSLRSEDTAVYYCARSWEGFPYWGQGTTVTVSSGGGSGGGSGCPPCGGGGDIQMTQSPSSLSASVGDRVTITCKASQNVGINVAWYQQKPGKAPKSLISSASYRYSGVPSRFSGSGSGTDFTLTISSLQPEDFATYFCQQYDTYPFTFGCGTKVEIK
For B2, the Kd is roughly 600 nM.
